{
  "source": "paper PMC3240985",
  "substrate": "O=C(O)[C@@H](COP(=O)(O)O)O[C@H]1O[C@H](CO)[C@@H](O)[C@H](O)[C@H]1O",
  "experiment": "purified protein",
  "conditions": "pH 7.5; 37.0 °C",
  "data": [
    {"protein": "mGpgP (Rv2419c), recombinant GpgP from M. tuberculosis (Mycobacterium tuberculosis H37Rv) (protein) MRARRLVMLRHGQTDYNVGSRMQGQLDTELSELGRTQAVAAAEVLGKRQPLLIVSSDLRRAYDTAVKLGERTGLVVRVDTRLRETHLGDWQGLTHAQIDADAPGARLAWREDATWAPHGGESRVDVAARSRPLVAELVASEPEWGGADEPDRPVVLVAHGGLIAALSAALLKLPVANWPALGGMGNASWTQLSGHWAPGSDFESIRWRLDVWNASAQVSSDVL", "values": [
      {"measurement": "Km", "result": "350 ± 30", "unit": "µM"}
    ]}
  ]
}
